Measured values taken from patent US6084068, “Elongin A and C functional domains” (Oklahoma Medical Research Foundation, dated 2000).

T1: Elongin BC complex (wild type rat Elongin B and C) (rat, UniProt P62870)
T1 chain 1: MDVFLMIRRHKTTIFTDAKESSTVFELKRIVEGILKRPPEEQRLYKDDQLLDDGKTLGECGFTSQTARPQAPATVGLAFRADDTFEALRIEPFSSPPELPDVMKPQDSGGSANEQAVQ
T1 chain 2: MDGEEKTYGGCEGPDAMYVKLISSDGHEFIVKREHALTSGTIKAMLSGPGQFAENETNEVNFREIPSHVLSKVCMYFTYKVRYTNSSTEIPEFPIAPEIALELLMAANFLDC

B1: Elongin A deletion mutant 1-630 (other)
chain: MAAESALQVVEKLQARLAANPDPKKLLKYLKKLSVLPITVDILVETGVGKTVNSFRKHEQVGNFARDLVAQWKKLVPVERNNEAEDQDFEKSNSRKRPRDVPQQEEEAEGNYQESWQASGSQPYSPEHRQKKHRKLPELERPHKVAHGHERRDERKRCHKVSPPYSSDPESSDYGHVQSPPPSSPHQMYTDLSRSPEMDQEPIVSHPKPGKVHSNTFQDRLGVSHLGEHQGKGAVSQNKPHKSSHKEKRPVDARGDEKSSVMGREKSHKASSKEESRRLLSEDSAKEKLPSSVVKKEKDREGNSLKKKLSPALDVASDNHFKKPKHKDSEKIKSDKNKQSVDSVDSGRGTGDPLPRAKDKVPNNLKAQEGKVRTNSDRKSPGSLPKVEEMDMDDEFEQPTMSFESYLSYDQPRKKKKKVVKTSGTALGEKGLKKKDSKSTSKNLNSAQKLPKANENKSDKLQPAGAEPTRPRKVPTDVLPALPDIPLPAIQTNYRPLPSLELISSFQPKRKAFSSPQEEEEAGFTGRRMNSKMQVYSGSKCAYLPKMMTLHQQCIRVLKNNIDSIFEVGGVPYSVLEPVLERCTPDQLYRIEECNHVLIEETDQLWKVHCHRDFKEERPEEYESWREMYL
B2: Elongin A internal deletion mutant Δ401-440 (other)
chain: MAAESALQVVEKLQARLAANPDPKKLLKYLKKLSVLPITVDILVETGVGKTVNSFRKHEQVGNFARDLVAQWKKLVPVERNNEAEDQDFEKSNSRKRPRDVPQQEEEAEGNYQESWQASGSQPYSPEHRQKKHRKLPELERPHKVAHGHERRDERKRCHKVSPPYSSDPESSDYGHVQSPPPSSPHQMYTDLSRSPEMDQEPIVSHPKPGKVHSNTFQDRLGVSHLGEHQGKGAVSQNKPHKSSHKEKRPVDARGDEKSSVMGREKSHKASSKEESRRLLSEDSAKEKLPSSVVKKEKDREGNSLKKKLSPALDVASDNHFKKPKHKDSEKIKSDKNKQSVDSVDSGRGTGDPLPRAKDKVPNNLKAQEGKVRTNSDRKSPGSLPKVEEMDMDDEFEQPTSKNLNSAQKLPKANENKSDKLQPAGAEPTRPRKVPTDVLPALPDIPLPAIQTNYRPLPSLELISSFQPKRKAFSSPQEEEEAGFTGRRMNSKMQVYSGSKCAYLPKMMTLHQQCIRVLKNNIDSIFEVGGVPYSVLEPVLERCTPDQLYRIEECNHVLIEETDQLWKVHCHRDFKEERPEEYESWREMYLRLQDAREQRLRLLTNNIRSAHANKPKGRQAKMAFVNSVAKPPRDVRRRQEKFGTGGAAVPEKVRIKPAPYTTGSSHVPASNSSSSFHSSPEELAYEGPSTSSAHLAPVASSSVSYDPRKPAVKKIAPMMAKTIKAFKNRFSRR
B3: Elongin A internal deletion mutant Δ441-480 (other)
chain: MAAESALQVVEKLQARLAANPDPKKLLKYLKKLSVLPITVDILVETGVGKTVNSFRKHEQVGNFARDLVAQWKKLVPVERNNEAEDQDFEKSNSRKRPRDVPQQEEEAEGNYQESWQASGSQPYSPEHRQKKHRKLPELERPHKVAHGHERRDERKRCHKVSPPYSSDPESSDYGHVQSPPPSSPHQMYTDLSRSPEMDQEPIVSHPKPGKVHSNTFQDRLGVSHLGEHQGKGAVSQNKPHKSSHKEKRPVDARGDEKSSVMGREKSHKASSKEESRRLLSEDSAKEKLPSSVVKKEKDREGNSLKKKLSPALDVASDNHFKKPKHKDSEKIKSDKNKQSVDSVDSGRGTGDPLPRAKDKVPNNLKAQEGKVRTNSDRKSPGSLPKVEEMDMDDEFEQPTMSFESYLSYDQPRKKKKKVVKTSGTALGEKGLKKKDSKSTALPDIPLPAIQTNYRPLPSLELISSFQPKRKAFSSPQEEEEAGFTGRRMNSKMQVYSGSKCAYLPKMMTLHQQCIRVLKNNIDSIFEVGGVPYSVLEPVLERCTPDQLYRIEECNHVLIEETDQLWKVHCHRDFKEERPEEYESWREMYLRLQDAREQRLRLLTNNIRSAHANKPKGRQAKMAFVNSVAKPPRDVRRRQEKFGTGGAAVPEKVRIKPAPYTTGSSHVPASNSSSSFHSSPEELAYEGPSTSSAHLAPVASSSVSYDPRKPAVKKIAPMMAKTIKAFKNRFSRR
B4: Elongin A deletion mutant A(1-535) (other)
chain: MAAESALQVVEKLQARLAANPDPKKLLKYLKKLSVLPITVDILVETGVGKTVNSFRKHEQVGNFARDLVAQWKKLVPVERNNEAEDQDFEKSNSRKRPRDVPQQEEEAEGNYQESWQASGSQPYSPEHRQKKHRKLPELERPHKVAHGHERRDERKRCHKVSPPYSSDPESSDYGHVQSPPPSSPHQMYTDLSRSPEMDQEPIVSHPKPGKVHSNTFQDRLGVSHLGEHQGKGAVSQNKPHKSSHKEKRPVDARGDEKSSVMGREKSHKASSKEESRRLLSEDSAKEKLPSSVVKKEKDREGNSLKKKLSPALDVASDNHFKKPKHKDSEKIKSDKNKQSVDSVDSGRGTGDPLPRAKDKVPNNLKAQEGKVRTNSDRKSPGSLPKVEEMDMDDEFEQPTMSFESYLSYDQPRKKKKKVVKTSGTALGEKGLKKKDSKSTSKNLNSAQKLPKANENKSDKLQPAGAEPTRPRKVPTDVLPALPDIPLPAIQTNYRPLPSLELISSFQPKRKAFSSPQEEEEAGFTGRRMNSKMQV
B5: Elongin A internal deletion mutant Δ546-565 (other)
chain: MAAESALQVVEKLQARLAANPDPKKLLKYLKKLSVLPITVDILVETGVGKTVNSFRKHEQVGNFARDLVAQWKKLVPVERNNEAEDQDFEKSNSRKRPRDVPQQEEEAEGNYQESWQASGSQPYSPEHRQKKHRKLPELERPHKVAHGHERRDERKRCHKVSPPYSSDPESSDYGHVQSPPPSSPHQMYTDLSRSPEMDQEPIVSHPKPGKVHSNTFQDRLGVSHLGEHQGKGAVSQNKPHKSSHKEKRPVDARGDEKSSVMGREKSHKASSKEESRRLLSEDSAKEKLPSSVVKKEKDREGNSLKKKLSPALDVASDNHFKKPKHKDSEKIKSDKNKQSVDSVDSGRGTGDPLPRAKDKVPNNLKAQEGKVRTNSDRKSPGSLPKVEEMDMDDEFEQPTMSFESYLSYDQPRKKKKKVVKTSGTALGEKGLKKKDSKSTSKNLNSAQKLPKANENKSDKLQPAGAEPTRPRKVPTDVLPALPDIPLPAIQTNYRPLPSLELISSFQPKRKAFSSPQEEEEAGFTGRRMNSKMQVYSGSKCAYLPFEVGGVPYSVLEPVLERCTPDQLYRIEECNHVLIEETDQLWKVHCHRDFKEERPEEYESWREMYLRLQDAREQRLRLLTNNIRSAHANKPKGRQAKMAFVNSVAKPPRDVRRRQEKFGTGGAAVPEKVRIKPAPYTTGSSHVPASNSSSSFHSSPEELAYEGPSTSSAHLAPVASSSVSYDPRKPAVKKIAPMMAKTIKAFKNRFSRR
B6: Elongin A point mutant L550S (other)
chain: MAAESALQVVEKLQARLAANPDPKKLLKYLKKLSVLPITVDILVETGVGKTVNSFRKHEQVGNFARDLVAQWKKLVPVERNNEAEDQDFEKSNSRKRPRDVPQQEEEAEGNYQESWQASGSQPYSPEHRQKKHRKLPELERPHKVAHGHERRDERKRCHKVSPPYSSDPESSDYGHVQSPPPSSPHQMYTDLSRSPEMDQEPIVSHPKPGKVHSNTFQDRLGVSHLGEHQGKGAVSQNKPHKSSHKEKRPVDARGDEKSSVMGREKSHKASSKEESRRLLSEDSAKEKLPSSVVKKEKDREGNSLKKKLSPALDVASDNHFKKPKHKDSEKIKSDKNKQSVDSVDSGRGTGDPLPRAKDKVPNNLKAQEGKVRTNSDRKSPGSLPKVEEMDMDDEFEQPTMSFESYLSYDQPRKKKKKVVKTSGTALGEKGLKKKDSKSTSKNLNSAQKLPKANENKSDKLQPAGAEPTRPRKVPTDVLPALPDIPLPAIQTNYRPLPSLELISSFQPKRKAFSSPQEEEEAGFTGRRMNSKMQVYSGSKCAYLPKMMTSHQQCIRVLKNNIDSIFEVGGVPYSVLEPVLERCTPDQLYRIEECNHVLIEETDQLWKVHCHRDFKEERPEEYESWREMYLRLQDAREQRLRLLTNNIRSAHANKPKGRQAKMAFVNSVAKPPRDVRRRQEKFGTGGAAVPEKVRIKPAPYTTGSSHVPASNSSSSFHSSPEELAYEGPSTSSAHLAPVASSSVSYDPRKPAVKKIAPMMAKTIKAFKNRFSRR
B7: Elongin A internal deletion mutant Δ481-520 (other)
chain: MAAESALQVVEKLQARLAANPDPKKLLKYLKKLSVLPITVDILVETGVGKTVNSFRKHEQVGNFARDLVAQWKKLVPVERNNEAEDQDFEKSNSRKRPRDVPQQEEEAEGNYQESWQASGSQPYSPEHRQKKHRKLPELERPHKVAHGHERRDERKRCHKVSPPYSSDPESSDYGHVQSPPPSSPHQMYTDLSRSPEMDQEPIVSHPKPGKVHSNTFQDRLGVSHLGEHQGKGAVSQNKPHKSSHKEKRPVDARGDEKSSVMGREKSHKASSKEESRRLLSEDSAKEKLPSSVVKKEKDREGNSLKKKLSPALDVASDNHFKKPKHKDSEKIKSDKNKQSVDSVDSGRGTGDPLPRAKDKVPNNLKAQEGKVRTNSDRKSPGSLPKVEEMDMDDEFEQPTMSFESYLSYDQPRKKKKKVVKTSGTALGEKGLKKKDSKSTSKNLNSAQKLPKANENKSDKLQPAGAEPTRPRKVPTDVLPEAGFTGRRMNSKMQVYSGSKCAYLPKMMTLHQQCIRVLKNNIDSIFEVGGVPYSVLEPVLERCTPDQLYRIEECNHVLIEETDQLWKVHCHRDFKEERPEEYESWREMYLRLQDAREQRLRLLTNNIRSAHANKPKGRQAKMAFVNSVAKPPRDVRRRQEKFGTGGAAVPEKVRIKPAPYTTGSSHVPASNSSSSFHSSPEELAYEGPSTSSAHLAPVASSSVSYDPRKPAVKKIAPMMAKTIKAFKNRFSRR
B8: Elongin A internal deletion mutant Δ521-545 (other)
chain: MAAESALQVVEKLQARLAANPDPKKLLKYLKKLSVLPITVDILVETGVGKTVNSFRKHEQVGNFARDLVAQWKKLVPVERNNEAEDQDFEKSNSRKRPRDVPQQEEEAEGNYQESWQASGSQPYSPEHRQKKHRKLPELERPHKVAHGHERRDERKRCHKVSPPYSSDPESSDYGHVQSPPPSSPHQMYTDLSRSPEMDQEPIVSHPKPGKVHSNTFQDRLGVSHLGEHQGKGAVSQNKPHKSSHKEKRPVDARGDEKSSVMGREKSHKASSKEESRRLLSEDSAKEKLPSSVVKKEKDREGNSLKKKLSPALDVASDNHFKKPKHKDSEKIKSDKNKQSVDSVDSGRGTGDPLPRAKDKVPNNLKAQEGKVRTNSDRKSPGSLPKVEEMDMDDEFEQPTMSFESYLSYDQPRKKKKKVVKTSGTALGEKGLKKKDSKSTSKNLNSAQKLPKANENKSDKLQPAGAEPTRPRKVPTDVLPALPDIPLPAIQTNYRPLPSLELISSFQPKRKAFSSPQEEEKMMTLHQQCIRVLKNNIDSIFEVGGVPYSVLEPVLERCTPDQLYRIEECNHVLIEETDQLWKVHCHRDFKEERPEEYESWREMYLRLQDAREQRLRLLTNNIRSAHANKPKGRQAKMAFVNSVAKPPRDVRRRQEKFGTGGAAVPEKVRIKPAPYTTGSSHVPASNSSSSFHSSPEELAYEGPSTSSAHLAPVASSSVSYDPRKPAVKKIAPMMAKTIKAFKNRFSRR

Target: T1, Elongin BC complex (wild type rat …)
Assay: refolded with wild type Elongin B and C; TSK SP-NPR HPLC, SDS-PAGE, silver staining

Binder | binding result
B1 | binds
B2 | binds
B3 | binds
B4 | no binding
B5 | no binding
B6 | no binding
B7 | binds
B8 | binds
